According to article PMC8064603:

Target: bovine RNase B, biotinylated (bovine) (UniProt P61823)
Experiment: BLI; biotinylated RNase B captured on streptavidin biosensors; purified fimbriae at 50 and 100 nM as analyte; 0.2% BSA in HBS; global fit: conformational change model for FimH^wt, 1:1 Langmuir model for FimH^FocH; one representative experiment

UniProt P61823, sequence (P61823 27-150): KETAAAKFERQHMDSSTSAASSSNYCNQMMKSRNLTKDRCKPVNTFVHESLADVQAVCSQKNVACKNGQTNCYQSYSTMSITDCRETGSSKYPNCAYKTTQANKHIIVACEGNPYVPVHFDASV

## purified type 1 fimbriae carrying wild-type FimH adhesin (FimH^wt) of E. coli K12 (from UniProt P08191 22-300) (complex)
  Kd: 149 nM
  kact (rate of transition from LAS to HAS, conformational change model): 0.0072 s⁻¹
  kinact (rate of transition from HAS to LAS, conformational change model): 0.0128 s⁻¹
  koff (LAS dissociation rate, conformational change model): 0.256 s⁻¹
  kon (LAS association rate, conformational change model): 1.1e+06 M⁻¹ s⁻¹
